The text below walks through data of patent publication US20120244144A1 (University of Texas, published 2012).

For experiment [1], the target named is T1, PTx-S1A (1-220) (Bordetella pertussis, UniProt P04977 36-255, M194I).
T1 sequence: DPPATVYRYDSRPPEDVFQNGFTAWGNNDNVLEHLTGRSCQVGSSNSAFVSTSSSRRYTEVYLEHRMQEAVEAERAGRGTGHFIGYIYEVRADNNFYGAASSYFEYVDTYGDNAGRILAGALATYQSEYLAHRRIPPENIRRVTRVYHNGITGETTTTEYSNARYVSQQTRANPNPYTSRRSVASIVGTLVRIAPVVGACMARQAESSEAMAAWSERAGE
Nature of the experiment: SPR BIAcore 3000, mAb 1B7 immobilised ~1000 RU. In general terms: Surface plasmon resonance follows binding to a sensor surface in real time, without labels.

The target of experiment [2] is T2, PTx-S1D (1-220) (Bordetella pertussis, UniProt P04977 35-254).
T2 chain: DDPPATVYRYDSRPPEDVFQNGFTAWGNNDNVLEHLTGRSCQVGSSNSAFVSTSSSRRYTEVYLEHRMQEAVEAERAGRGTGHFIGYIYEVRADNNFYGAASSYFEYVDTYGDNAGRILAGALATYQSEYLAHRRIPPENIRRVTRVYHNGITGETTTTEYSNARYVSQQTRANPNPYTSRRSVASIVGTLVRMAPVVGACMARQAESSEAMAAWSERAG
Nature of the experiment: SPR BIAcore 3000, mAb 1B7 immobilised ~1000 RU.

For the next experiment, the target named is T3, PTx-S1 9K/129G (1-220) (Bordetella pertussis, UniProt P04977 36-255, R9K; E129G).
T3 construct: also called R9K, E129G variant
T3 sequence: T1 sequence with R8K, E128G, I193M
Nature of the experiment: SPR BIAcore 3000, mAb 1B7 immobilised ~1000 RU.

Experiment [3] concerns the target T4, PTx-S1-220, truncated recombinant S1 subunit (residues 1-220) (Bordetella pertussis strain Tohama I), P04977. As to the kind of experiment: SPR BIAcore 3000, mAb 1B7 immobilised ~1000 RU. Particulars: remark: other sources report otherwise.
For experiment [4], the target named is pertussis toxin holotoxin (Bordetella pertussis), P04977. As to the kind of experiment: SPR BIAcore 3000, mAb 1B7 immobilised ~1000 RU. Particulars: remark: other sources report otherwise.
For experiment [5], the target named is pertussis toxin B-oligomer (Bordetella pertussis), P04978. Nature of the experiment: SPR BIAcore 3000, mAb 1B7 immobilised ~1000 RU. Particulars: remark: other sources report otherwise.
For a further experiment, the target named is T5, PTx-S1-220 T153A (Bordetella pertussis strain Tohama I, UniProt P04977 36-255, T153A).
T5 sequence: T1 sequence with T152A, I193M
As to the kind of experiment: SPR, mAb 1B7 immobilised ~1000 RU.

The target in the next experiment is T6, PTx-S1-220 E210A (Bordetella pertussis strain Tohama I, UniProt P04977 36-255, E210A).
T6 sequence: T1 sequence with I193M, E209A
As to the kind of experiment: SPR, mAb 1B7 immobilised ~1000 RU.

The target of the next experiment is T7, PTx-S1-220 R79A (Bordetella pertussis strain Tohama I, UniProt P04977 36-255, R79A).
T7 sequence: T1 sequence with R78A, I193M
Nature of the experiment: SPR, mAb 1B7 immobilised ~1000 RU.

For another experiment, the target named is T8, PTx-S1-220 T158A (Bordetella pertussis strain Tohama I, UniProt P04977 36-255, T158A).
T8 sequence: T1 sequence with T157A, I193M
As to the kind of experiment: SPR, mAb 1B7 immobilised ~1000 RU.

Experiment [6] addresses pertussis toxin holotoxin (Bordetella pertussis), P04977. As to the kind of experiment: competition ELISA (Friguet), 5 nM antibody, soluble PT. Particulars: remark: other sources report otherwise. A general note: ELISA stands for enzyme-linked immunosorbent assay.
Experiment [7] deals with T4, PTx-S1-220, truncated recombinant S1 …. Nature of the experiment: SPR, mAb 1B7 immobilised ~1000 RU. Particulars: remark: other sources report otherwise.
Experiment [8] concerns the target T1, PTx-S1A (1-220). Nature of the experiment: SPR.
Experiment [9] concerns the target T2, PTx-S1D (1-220). As to the kind of experiment: SPR.

Residue numbers refer to the chain shown, from its start.

B1: monoclonal antibody 1B7 (antibody)
chain: DIQMTQSPALMSASPGEKVTMTCSASSSVSFMYWYQQKPRSSPKPWIYLTSNLPSGVPARFSGSGSGTSYSLTISSMEAEDAATYYCQQWSSHPPTFGSGTKLEIKRGGGGSGGGGSGGGGSGGGGSEVQLQQSGSELVRPGASVKLSCKASGYKFTSYWMHWVKQRPGQGLEWIGNIFPGSGSTNYDEKFNSKATLTVDTSSNTAYMQLSSLTSEDSAVYYCTRWLSGAYFDYWGQGTTLTVSSASGA
notes: also called mAb 1B7; 1B7 mAb
With B1, the koff (in general, a measure of how fast the partners let go of each other) with PTx-S1A (1-220) [1] amounted to 0.00071 s⁻¹; with PTx-S1D (1-220) [2], 0.00095 s⁻¹; with PTx-S1 9K/129G (1-220) it was 0.0016 s⁻¹; in experiment [3], 0.0014 s⁻¹; in [4], 0.0004 s⁻¹; in experiment [5], 0.0027 s⁻¹. Further, the koff is 0.002 s⁻¹ with PTx-S1-220 T153A; 0.0016 s⁻¹ with PTx-S1-220 E210A; 0.025 s⁻¹ with PTx-S1-220 R79A; 0.0013 s⁻¹ with PTx-S1-220 T158A; 0.0014 s⁻¹ in [7]. In addition, in experiment [6], the Kd (in general, the concentration at which binding is half-saturated) came to 1.1 nM. Moreover, the “fold decrease in off-rate versus WT PTx-S1-220” value with PTx-S1A (1-220) [8] and with PTx-S1D (1-220) [9] was roughly 2 fold throughout.
